Patent publication US11866736B2, “Protein prostheses for mitochondrial diseases or conditions” (The General Hospital Corporation, priority 2015, dated 2024)

B1: LbNOX: water-forming NADH oxidase endogenous to Lactobacillus brevis; tested with C-terminal FLAG tag (protein, listed as Lactobacillus brevis)
chain: KVTVVGCTHAGTFAIKQILAEHPDAEVTVYERNDVISFLSCGIALYLGGKVADPQGLFYSSPEELQKLGANVQMNHNVLAIDPDQKTVTVEDLTNHAQTTESYDKLVMTSGSWPIVPKIPGIDSDRVKLCKNWAHAQALIEDAKEAKRITVIGAGYIGAELAEAYSTTGHDVTLIDAMARVMPKYFDADFTDVIEQDYRDHGVQLALGETVESFTDSATGLTIKTDKNSYETDLAILCIGFRPNTDLLKGKVDMAPNGAIITDDYMRSSNPDIFAAGDSAAVHYNPTHQNAYIPLATNAVRQGILVGKNLVKPTVKYMGTQSSSGLALYDRTIVSTGLTLAAAKQQGLNAEQVIVEDNYRPEFMPSTEPVLMSLVFDPDTHRILGGALMSKYDVSQSANTLSVCIQNENTIDDLAMVDMLFQPNFDRPFNYLNILAQAAQAKVAQSVNA
modifications: C-terminal FLAG tag
B2: TPNOX: NADPH-specific quintuple mutant (G159A/D177A/A178R/M179S/P184R) of LbNOX (protein)
chain: KVTVVGCTHAGTFAIKQILAEHPDAEVTVYERNDVISFLSCGIALYLGGKVADPQGLFYSSPEELQKLGANVQMNHNVLAIDPDQKTVTVEDLTNHAQTTESYDKLVMTSGSWPIVPKIPGIDSDRVKLCKNWAHAQALIEDAKEAKRITVIGAGYIAAELAEAYSTTGHDVTLIARSARVMRKYFDADFTDVIEQDYRDHGVQLALGETVESFTDSATGLTIKTDKNSYETDLAILCIGFRPNTDLLKGKVDMAPNGAIITDDYMRSSNPDIFAAGDSAAVHYNPTHQNAYIPLATNAVRQGILVGKNLVKPTVKYMGTQSSSGLALYDRTIVSTGLTLAAAKQQGLNAEQVIVEDNYRPEFMPSTEPVLMSLVFDPDTHRILGGALMSKYDVSQSANTLSVCIQNENTIDDLAMVDMLFQPNFDRPFNYLNILAQAAQAKVAQSVNA

Key:
[1] = test system: primary rat hepatocytes; test: Gluconeogenesis in primary hepatocytes (adenoviral transduction); format: cell-based; details: adenovirus transduction, 5 mM lactate, glucose measured after 6 hours
From the text: Two custom adenoviruses (Adenovirus Type 5 (dE1/E3)) were produced by Vector Biolabs. The same LbNOX and mitoLbNOX nucleotide sequences were used as in the lentiviral pLVX-TRE3G constructs. Adenoviral constructs encode for expression of either LbNOX or mitoLbNOX and eGFP, each gene driven by its own CMV promoter. Adenovirus with eGFP driven by the CMV promoter was used as a control (Vector Biolabs, 1060-HT).
Primary hepatocytes were obtained from the MGH Cell Resource Core, where they were freshly isolated by collagenase perfusion of livers from 24-hour fasted Sprague-Dawley rats and plated onto 24-well collagen-coated plates. Twenty four thousand cells were plated and cultured overnight in isolation media (DMEM with high glucose and pyruvate (Life Technologies, 11995)) supplemented with 20 ng/mL epidermal growth factor, 14.3 μg/mL glucagon, insulin, 7.5 μg/mL hydrocortisone, 10% FBS, 1% Penicillin-streptomycin). Cells were then transduced with the indicated adenoviral vector (MOI 20) and were serum starved by incubating in DMEM without additional supplementation overnight. […] Media was sampled 6 hours later and glucose was measured using the AMPLEX® Red Glucose Assay (Life-Technologies) and normalized to total protein levels from hepatocytes lysed in 1% SDS as measured by the BCA assay. […]

[2] = test system: HeLa Tet3G cells; test: Cell proliferation assays: rescue of the proliferation defect induced by respiratory chain inhibitors (nuclei counting); format: cell-based, human; details: no pyruvate, doxycycline-inducible expression; for rescue of proliferation defect caused by piericidin: 1 μM piericidin
Experimental: Five hundred HeLa Tet3G NDI1, Luciferase, LbNOX or mitoLbNOX cells were seeded in 200 μl of DMEM (DMEM (US Biological, D9800), 3.7 g/L NaHCO3, 10% dialyzed FBS (Life Technologies, 26400-044)) per well in a black 96-well plate with clear bottom (Corning, 3904). Twenty four hours after seeding, media was exchanged to DMEM without pyruvate (DMEM (US Biological, D9802), 15.9 mg/L phenol red, 3.7 g/L NaHCO3, 10% dialyzed FBS (Life Technologies, 26400-044))±10 μg/ml chloramphenicol±30 ng/ml ethidium bromide±1 mM pyruvate±300 ng/ml doxycycline. After 0, 2, 3, 4, 5 and 6 days, media was aspirated and cells were fixed by adding 100 μl of 4% paraformaldehyde in PBS and incubating at room temperature for at least 30 min. Paraformaldehyde solution was aspirated and cells were stained with 200 μl of 1 μg/ml Hoechst 33345 in PBS. Plates were covered with sealing aluminum foil and stored at 4° C. before counting cells in each well with Molecular Dynamics IMAGEXPRESS® Ultra (see “Nuclei counting using Molecular Devices IMAGEXPRESS® Ultra,” below).
One thousand HeLa Tet3G NDI1, Luciferase, LbNOX or mitoLbNOX cells were seeded in 200 μl of DMEM (DMEM (US Biological, D9800), 3.7 g/L NaHCO3, 10% dialyzed FBS (Life Technologies, 26400-044)) per well in a black 96-well plate with clear bottom (Corning, 3904). Twenty four hours after seeding, 10 μl of 6 μg/ml doxycycline (300 ng/ml final concentration) or water was added to each well. Twenty four hours after addition of doxycycline, media was exchanged to DMEM without pyruvate (DMEM (US Biological, D9802), 15.9 mg/L phenol red, 3.7 g/L NaHCO3, 10% dialyzed FBS (Life Technologies, 26400-044)), ±1 μM piericidin, ±1 μM antimycin, ±1 mM pyruvate and ±300 ng/ml doxycycline. After 0, 1, 2, 3 and 4 days, media was aspirated and cells were fixed by adding 100 μl of 4% paraformaldehyde in PBS and incubating at room temperature for at least 30 min. Paraformaldehyde solution was aspirated and cells were stained with 200 μl of 1 μg/ml Hoechst 33345. Plates were covered with sealing aluminum foil and stored at 4° C. before counting cells in each well with Molecular Dynamics IMAGEXPRESS® Ultra (see “Nuclei counting using Molecular Devices IMAGEXPRESS® Ultra,” below).
Two thousand HeLa Tet3G Luciferase cells were seeded in 200 μl of DMEM (DMEM (US Biological, D9800), 3.7 g/L NaHCO3, 10% dialyzed FBS (Life Technologies, 26400-044)) per well in a black 96-well plate with clear bottom (Corning, 3904). Twenty four hours after seeding, media was exchanged to DMEM without pyruvate (DMEM (US Biological, D9802), 15.9 mg/L phenol red, 3.7 g/L NaHCO3, 10% dialyzed FBS (Life Technologies, 26400-044))±1 μM piericidin, ±indicated concentrations of pyruvate, lactate, malate, oxaloacetate, nicotinamide mononucleotide ([…]) or PJ34. After 3 days, media was aspirated and cells were fixed by adding 100 μl of 4% paraformaldehyde in PBS and incubating at room temperature for at least 30 min. Paraformaldehyde solution was aspirated and cells were stained with 200 μl of 1 μg/ml Hoechst 33345. Plates were covered with sealing aluminum foil and stored at 4° C. before counting cells in each well with Molecular Dynamics IMAGEXPRESS® Ultra (see “Nuclei counting using Molecular Devices IMAGEXPRESS® Ultra,” below).
Images of 96-well plates with fixed cells stained with Hoechst 33345 were collected using Molecular Devices IMAGEXPRESS® Micro XLS. Four images were taken to cover the whole well. Images were analyzed and nuclei number per well was counted using CellProfiler 2.0 image analysis software (Carpenter, et al., Genome Biol., 7:R100, 2006; and Kamentsky, et al., Bioinformatics, 27:1179, 2011). […]

[3] = Enzymatic assay of NAD(P)H oxidase activity, NADPH as substrate (Michaelis-Menten analysis); format: biochemical
Experimental: TPNOX is highly specific towards NADPH (e.g., approximately 1120 fold more reactive with NADPH than with NADH based on respective kat/KM values).
Recombinant LbNOX activity was monitored by following the decrease of the absorbance of NAD(P)H at […] using CARY® 100 spectrophotometer (Agilent, CA). A typical reaction mixture contained 2 μM FAD in 0.5 ml of the assay buffer (50 mM Na2HPO4, pH 7.5, 150 mM NaCl) and was incubated for 4 min at 37° C. before NAD(P)H (2-600 μM) and enzyme (0.08-6.8 μg) were added. Extinction coefficient (ε340=6.2 mM^−1 cm^−1) was used to calculate NAD(P)H oxidase activity. Simultaneous monitoring of oxygen consumption and NADH fluorescence was performed using a custom-built fluorimeter. In our setup the REDEYE™ oxygen patch (OceanOptics) was installed in a cuvette and the optical probe was connected to a fluorimeter. Oxygen causes quenching of the REDEYE™ patch fluorescence which allows to monitor the partial pressure of oxygen. In our experiments 0.5 ml of the assay buffer was preincubated at 28° C. before NADH (40-1500 μM) and LbNOX (0.1-2 μg) were added.

Molecule	gluconeogenesis from lactate [1]	rescue of proliferation defect caused by ethidium bromide ([2]; 30 ng/ml ethidium bromide)	rescue of proliferation defect caused by antimycin ([2]; 1 μM antimycin)	rescue of proliferation defect caused by piericidin [2]	rescue of proliferation defect caused by chloramphenicol ([2]; 10 μg/ml chloramphenicol)	kcat with NADPH [3] [s⁻¹]	Km ([3]; recombinant enzyme) [µM]
B1	significantly increased	rescued completely	rescued completely	rescued completely	rescued completely	–	–
B2	–	–	–	not	–	268 ± 4	22 ± 2
